This is an account of results in publication PMC3201874.

For the data set, the target named is huPrP(23-110) (human) (UniProt P04156). The settings on record: FRET: 25 mM Tris-HCl pH 7.5, 30 mM NaCl, 0.2 mM MgCl2, 20 C.
huPrP(23-110) (human), sequence (P04156 23-110): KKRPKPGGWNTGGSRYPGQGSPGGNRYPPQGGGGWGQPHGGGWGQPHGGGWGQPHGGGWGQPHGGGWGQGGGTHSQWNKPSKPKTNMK

cTAR: the Ka is above 1e+07 M⁻¹.
